Residue numbers refer to the chain shown, from its start. Numbers in names are those of the source.
T1: 重组人IL-11 (recombinant human interleukin-11) (human, UniProt P20809 22-199)
T1 sequence (looked up): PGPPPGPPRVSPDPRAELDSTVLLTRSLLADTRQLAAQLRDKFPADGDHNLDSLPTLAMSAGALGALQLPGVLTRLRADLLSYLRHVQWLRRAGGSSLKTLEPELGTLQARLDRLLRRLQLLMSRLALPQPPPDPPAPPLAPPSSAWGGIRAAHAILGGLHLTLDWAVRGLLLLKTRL

B1: hu10C2-hIgG4 (antibody, V domains shown)
VH: QVHLVQSGAEVKKPGSSVKVSCKAPGYTFSSYWIEWVRQAPGQGLEWIGEILPGSGNTNYNEKFKGRATFTADTSTSTAYMELSSLRSEDTAVYYCASPSSTVDYAMDYWGQGTLVTVSS
VL: EIVLTQSPGTLSLSPGERATLSCRASRSVSTSGYNYMHWYQQKPGQAPRLLIFLASNLESGIPDRFSGSGSGTDFTLTISRLEPEDFAVYYCQHSRELPYTFGQGTKLEIK
notes: also called 10C2人源化抗体
B2: hu16E12-hIgG4 (antibody, V domains shown)
VH: QVQLVQSGAEVKKPGASVKVSCKASGYTFTSYYMYWVRQAPGQGLEWIGEINPSNGGTDFNEKFKNRVTMTVDTSISTAYMELSRLRSDDTAVYYCTREEIHYGYDKGFAYWGQGTLVTVSS
VL: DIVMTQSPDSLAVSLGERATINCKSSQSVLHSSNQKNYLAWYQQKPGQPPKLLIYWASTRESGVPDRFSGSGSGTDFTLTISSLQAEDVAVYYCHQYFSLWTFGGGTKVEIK
notes: also called 16E12人源化抗体; hu16E12 Wild Type
B3: Control-3C6 (antibody, V domains shown)
VH: EVQLVQSGAEVKKPGASVKISCKASGYTFTDYNMDWVKQAPGQRLEWIGDINPHNGGPIYNQKFTGRATLTVDKSASTAYMELSSLRSEDTAVYYCARGELGHWYFDVWGQGTTVTVSS
VL: DIVLTQSPASLALSPGERATLSCRASKSVSTSGYSYIHWYQQKPGQAPRLLIYLASNLDSGVPARFSGSGSGTDFTLTISSLEEEDFATYYCQHSRDLPPTFGQGTKLEIKR
B4: 10C2 (antibody, V domains shown)
VH: QVHLQQSGTELMKPGASVKISCKAPGYTFSSYWIEWVKQRPGHGLEWIGEILPGSGNTNYNEKFKGKATFTADTSSNTAYMQLSSLTSEDSAVYYCASPSSTVDYAMDYWGQGTSVTVSS
VL: DIVLTQSPASLGVSLGQRATISCRASRSVSTSGYNYMHWYQQKPGQPPKLLIFLASNLESGVPARFSGSGSGTDFTLNIHPVEEEDAATYHCQHSRELPYTFGGGTKLEIK
notes: Mouse hybridoma antibody purified on Protein A; also called 鼠源10C2
B5: 16E12 (antibody, V domains shown)
VH: QVQLQQSGAELVKPGASVKLSCKASGYTFTSYYMYWVKQRPGQGLEWIGEINPSNGGTDFNEKFKNKATLTVDKSSSTAYMQLSSLTSEDSAVYYCTREEIHYGYDKGFAYWGQGTLVTVSA
VL: NIMMTQSPSSLAVSAGEKVTMSCKSSQSVLHSSNQKNYLAWYQQKPGQSPKLLIYWASTRESGVPDRFTGSGSGTDFTLTISSIQAEDLAVYYCHQYFSLWTFGGGTKLEIK
notes: Mouse hybridoma antibody purified on Protein A; also called 鼠源16E12
B6: 18B6 (antibody, V domains shown)
VH: B5 VH with S31N, M34I, V37M, D59N, N66S, Y95F, T97S
VL: B5 VL with S10Y, H31N, T59I, I84V, Y93F, L100S, K108R
notes: Mouse hybridoma antibody purified on Protein A
B7: 16F3 (antibody, V domains shown)
VH: QVQLQQSGAELVRPGVSVKISCKGSGDTFTDYAMHWVKQSHAKSLEWIGVISTYYGDVSYNQKFKGKATMTVDKSSSTAYMELVRLTSEDSAIYYCARGYYDYAWFAYWGQGTLVTVSA
VL: QIVLTQSPAIMSASPGEKVTMTCSASSSLNYMHWYQQKSGTSPKRWIYDTSKLASGVPARFSGSGSGTSYSLTISSMEAEDAATYYCQQWSSNPLTFGAGTKLELK
notes: as for B6
B8: 14E1 (antibody, V domains shown)
VH: EVQLQQSGPVLVKPGASVKMSCKASGYTFTDYYMNWVKQSHGKSLEWIGVFNPYNGGTVYNQKFKGKATLTVDKSSSTAYMELSSLTSEDSAVYYCAREDYGSYYVVFDYWGQGTTLTVSS
VL: QIVLSQSPAILSASPGEKVTMTCRASSSVSYMHWYQQKPGSSPKPWIYATSNLASGVPARFSGSGSGTSYSLTISRVEAEDAATYYCQHWSSNPLTFGAGTKLELK
notes: as for B6
B9: 6B9 (antibody, V domains shown)
VH: EVQLVESGGGSVKPGGSLKLSCAASGFTFSNYAMSWVRQSPEKRLEWVAEISNGGSYTYYPDTVTGRFTISRDNAKNTLYLEMSSLRSEDTAMYYCVRHYDGYYGGILDFAMDYWGQGTSVTVSS
VL: DIQMTQSPSSLSASLGGKVTITCKASQDINKCIAWYQHKPGKGPRLLIHYTSTLQPGIPSRFSGSGSGRDYSFTISNLEPEDIATYYCLQYDYLHTFGGGTKLEIK
notes: as for B6
B10: 26A6 (antibody, V domains shown)
VH: QIQLVQSGPELKKPGETVKISCKASGYTFTNYGMNWVKQAPGKGLKWMGWINTNTGETTYAEEFKGRFAFSLEASVSTAHLQINNLKNEDTATYFCAKEDFYGMDYWGQGSSVTVSS
VL: NIVMTQTPKFLLVSAGDRVTMTCKASQSVSNDVVWYQQKPGQSPKLLIYYASNRYTGVPDRFIGSGYGTEFTFTISTVQAEDLAVYFCQQDYSFPYTFGGGTKLEIK
notes: as for B6
B11: 14F6 (antibody, V domains shown)
VH: EVKLEESGGGLVQPGGSMKLSCVASGFTFSKYWMNWVRQSPEKGLEWVAEIRLKSDNYATQYAESVKGRFTMSRDDSKSSVYLQMKNLRAEDSGIYYCTKEGYDGYAMDYWGQGTSVTVSS
VL: B10 VL with N1R, M21I, S28N, V29I, S30N, I63T, E70D, S93I, F94S, Y96W
notes: as for B6
B12: 4A2 (antibody, V domains shown)
VH: QVQLQQSGGELVRPGVSVKISCKGSGYKITDYAMHWVKQSHAESLEWIGVISSYYGDTSYNQKFKGKATMTVDISSSTAYMEIARLTSEDSAIYYCAIGLWDVGYFDYWGQGTTLTVSS
VL: B7 VL with L29V, N30S, H33Q, S91V, N93K, P94A, L95V, A99S, L105I
notes: as for B6
B13: 1D12 (antibody, V domains shown)
VH: EVQLQQFGAELVKPGAAVKISCKASGYTFTDYNMDWVRQSHGKSLEWIGEINPNYDSTRYNQKFKGKATLTVDKSSSTAYMELRSLTSEDTAVYYCARSDYYAMDYWGQGTSVTVSS
VL: SIVMTQTPSFLLVSAGDRVTITCKASQSVSNDVAWYQQKPGQSPKLLIYYASNRFTGVPDRFTGSGFGTDFTFTISTVQTGDLAVYFCRQDYISPYTFGGGTKLEIK
notes: as for B6
B14: hu16E12 E61Q N65G (antibody, V domains shown)
VH: B2 VH with E62Q, N66G
VL: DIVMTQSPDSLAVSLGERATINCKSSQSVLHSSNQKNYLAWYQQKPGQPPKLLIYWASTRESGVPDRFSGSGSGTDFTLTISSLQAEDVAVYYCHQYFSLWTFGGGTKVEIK
notes: CDR mutant of hu16E12 (IgG4); placed on VH (CDR2, probably Kabat) by inference
B15: hu16E12 G55A (antibody, V domains shown)
VH: B2 VH with G56A
VL: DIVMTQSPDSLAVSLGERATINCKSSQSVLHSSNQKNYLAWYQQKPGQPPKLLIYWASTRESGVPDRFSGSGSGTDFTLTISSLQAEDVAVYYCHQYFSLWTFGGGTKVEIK
notes: as for B14
B16: hu16E12 G55V (antibody, V domains shown)
VH: B2 VH with G56V
VL: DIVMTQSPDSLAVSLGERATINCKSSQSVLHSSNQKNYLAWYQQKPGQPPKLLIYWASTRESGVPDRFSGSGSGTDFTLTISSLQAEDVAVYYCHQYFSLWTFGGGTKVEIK
notes: as for B14
B17: hu16E12 K64Q N65G (antibody, V domains shown)
VH: B2 VH with K65Q, N66G
VL: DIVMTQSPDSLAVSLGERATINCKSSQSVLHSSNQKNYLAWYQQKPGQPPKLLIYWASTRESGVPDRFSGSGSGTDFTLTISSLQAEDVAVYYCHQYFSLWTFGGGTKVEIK
notes: CDR mutant of hu16E12 (IgG4); placed on VH (CDR2, probably Kabat numbering) by inference
B18: hu16E12 N54Q (antibody, V domains shown)
VH: B2 VH with N55Q
VL: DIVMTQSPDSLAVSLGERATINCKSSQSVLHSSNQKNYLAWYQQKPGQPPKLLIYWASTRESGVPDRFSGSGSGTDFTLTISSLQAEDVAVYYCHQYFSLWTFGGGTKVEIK
notes: as for B14
B19: hu16E12 N54S (antibody, V domains shown)
VH: B2 VH with N55S
VL: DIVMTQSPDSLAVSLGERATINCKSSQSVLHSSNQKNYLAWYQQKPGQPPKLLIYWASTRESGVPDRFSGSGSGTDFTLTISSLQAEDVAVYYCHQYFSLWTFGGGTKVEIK
notes: as for B14
B20: hu16E12 N60A N65G (antibody, V domains shown)
VH: B2 VH with N61A, N66G
VL: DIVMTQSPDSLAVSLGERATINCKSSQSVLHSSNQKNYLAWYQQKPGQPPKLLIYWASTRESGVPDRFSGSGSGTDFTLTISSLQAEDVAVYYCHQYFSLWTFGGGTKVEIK
notes: as for B14
B21: hu16E12 N65G (antibody, V domains shown)
VH: B2 VH with N66G
VL: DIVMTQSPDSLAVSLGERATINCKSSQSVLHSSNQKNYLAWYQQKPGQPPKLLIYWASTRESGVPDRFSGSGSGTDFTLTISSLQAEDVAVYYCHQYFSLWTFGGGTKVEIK
notes: as for B14
B22: hu16E12 L94H (antibody, V domains shown)
VH: B2 VH
VL: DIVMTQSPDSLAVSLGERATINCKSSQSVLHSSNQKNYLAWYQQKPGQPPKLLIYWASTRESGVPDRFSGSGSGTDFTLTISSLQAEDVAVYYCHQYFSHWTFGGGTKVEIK

These binders were tested against T1, 重组人IL-11 (recombinant human …) (assay: cell-based or functional assay).
For B1, the “IC50, STAT3 luciferase reporter in DLD1-IL-11R-pSTAT3-Luc cells” value (“IC50, STAT3 luciferase reporter” below) was 4.86 ng/mL. In the case of B2, the “IC50, STAT3 luciferase reporter” value is reported as 1.16 ng/mL. With B3 the “IC50, STAT3 luciferase reporter” value was 178 ng/mL.

The binders below were run against T1, 重组人IL-11 (recombinant human …) (assay: ELISA, IL-11 coated on plate).
B4: binds. B5: binds. B6: binds. B7: binds. B8: binds. B9: binds. B10: binds. B11: binds. B12: binds. B13: binds.

Biological target: T1, 重组人IL-11 (recombinant human …)
Assay: ELISA, IL-11 coated on plate
Remark: another data set of the same source
B1 showed an EC50 of 0.0659 µg/mL. For B2, the EC50 was 0.0624 µg/mL. With B3 the EC50 was 22.5 µg/mL.

These binders were tested against T1, 重组人IL-11 (recombinant human …) (assay: FACS, blocking of IL-11-biotin binding to 293T-IL-11Rα/gp130 cells).
B1 showed an IC50 of 0.0811 µg/mL. Work on B2 yielded an IC50 of 0.0679 µg/mL. B3 gave an IC50 of 4.19 µg/mL.

These binders were tested against T1, 重组人IL-11 (recombinant human …) (assay: SPR (Biacore), antibody captured on anti-human IgG CM5 chip, IL-11 as analyte).
B1 showed a Kd of 14.9 pM, a koff of 2.2e-05 s⁻¹ and a kon of 1.47e+06 M⁻¹ s⁻¹. B2 showed a Kd of 15.8 pM, a koff of 4.66e-05 s⁻¹ and a kon of 2.96e+06 M⁻¹ s⁻¹. B14 was tested, and the Kd was 36.3 pM, the koff was 8.54e-05 s⁻¹ and the kon was 2.35e+06 M⁻¹ s⁻¹. Binder B15 has a Kd of 12 pM, a koff of 3.56e-05 s⁻¹ and a kon of 2.96e+06 M⁻¹ s⁻¹. B16 showed a Kd of 3.87 pM, a koff of 9.32e-06 s⁻¹ and a kon of 2.41e+06 M⁻¹ s⁻¹. B17 gave a Kd of 15.7 pM, a koff of 5.76e-05 s⁻¹ and a kon of 3.68e+06 M⁻¹ s⁻¹. In the case of B18, the Kd is reported as 36.3 pM, the koff is reported as 0.000101 s⁻¹ and the kon is reported as 2.78e+06 M⁻¹ s⁻¹. For B19, the Kd was 24.5 pM, the koff was 7e-05 s⁻¹ and the kon was 2.86e+06 M⁻¹ s⁻¹. B20 was tested, and the Kd was 26.8 pM, the koff was 7.51e-05 s⁻¹ and the kon was 2.81e+06 M⁻¹ s⁻¹. Work on B21 yielded a Kd of 18.9 pM, a koff of 5.25e-05 s⁻¹ and a kon of 2.78e+06 M⁻¹ s⁻¹. B22 gave a Kd of 1.87 pM, a koff of 3.91e-06 s⁻¹ and a kon of 2.09e+06 M⁻¹ s⁻¹.
